Consider seven molecules from doi:10.1101/2021.04.25.441314.

Data set [1] deals with T1, Hfq wt (Escherichia coli, UniProt P0A6X3 1-102). The experiment in a line: filter binding.
The target in data set [2] is T2, Hfq Y25D (distal face) (Escherichia coli, UniProt P0A6X3 1-102, Y25D). The data set is described as follows: EMSA.
In data set [3] the target is T1, Hfq wt. The data set is described as follows: competition.
Data set [4] has as its target T2, Hfq Y25D (distal face). The data set is described as follows: filter binding.
Data set [5] concerns the target T1, Hfq wt. The experiment in a line: filter binding. The source holds these as a separate data set.
Data set [6] has as its target T3, Hfq R16A (rim) (Escherichia coli, UniProt P0A6X3 1-102, R16A). The experiment in a line: filter binding.
The target in data set [7] is T2, Hfq Y25D (distal face). The data set is described as follows: filter binding. This is another data set of the same source.
Data set [8] deals with T1, Hfq wt. The data set is described as follows: filter binding. This is another data set of the same source.
The target of data set [9] is T3, Hfq R16A (rim). The experiment in a line: filter binding. The source holds these as a separate data set.
Data set [10] concerns the target T3, Hfq R16A (rim). The data set is described as follows: filter binding. The source holds these as a separate data set.
The target in data set [11] is T1, Hfq wt. The experiment in a line: filter binding. This is another data set of the same source.
Data set [12] concerns the target T2, Hfq Y25D (distal face). The data set is described as follows: filter binding. This is another data set of the same source.
The target in data set [13] is T3, Hfq R16A (rim). The experiment in a line: filter binding. This is another data set of the same source.
Data set [14] has as its target T2, Hfq Y25D (distal face). The data set is described as follows: filter binding. This is another data set of the same source.
The target of data set [15] is T1, Hfq wt. The data set is described as follows: competition. This is another data set of the same source.
For data set [16], the target named is T1, Hfq wt. The experiment in a line: filter binding. This is another data set of the same source.
Another data set concerns the target Hfq K56A (proximal face) (Escherichia coli, UniProt P0A6X3 1-102, K56A). The experiment in a line: filter binding.
The target of data set [17] is T1, Hfq wt. The data set is described as follows: filter binding. This is another data set of the same source.
The target of data set [18] is T2, Hfq Y25D (distal face). The data set is described as follows: filter binding. The source holds these as a separate data set.
Data set [19] has as its target T3, Hfq R16A (rim). The data set is described as follows: filter binding. The source holds these as a separate data set.

Where two headings read alike, the source gives them in different places.

B1: 3'ETSleuZ-U4 (structured_RNA)
RNA: GGCCCGGAUGGUGGAAUCGGUAGACACAAGGGAUUUAAAAUCCCUCGGCGUUCGCGCUGUGCGGGUUCAAGUCCCGCUCCGGGUACCAUGGGAAAGAUAAGAAUAAAAUCAAAGCAAUAAGCAGUGUCGUGAAACCACCUUCGGGUGGUUUU
Turning to B1, in the data set with Hfq wt [1], the binding result is “binds”.

B2: RybB (structured_RNA)
RNA: GGCCACUGCUUUUCUUUGAUGUCCCCAUUUUGUGGAGCCCAUCAACCCCGCCAUUUCGGUUCAAGGUUGAUGGGUUUUUU
In the case of B2, in the data set with Hfq Y25D (distal face) [2], the binding result is “binds”.

B3: GcvB (structured_RNA)
RNA: GACUUCCUGAGCCGGAACGAAAAGUUUUAUCGGAAUGCGUGUUCUGGUGAACUUUUGGCUUACGGUUGUGAUGUUGUGUUGUUGUGUUUGCAAUUGGUCUGCGAUUCAGACCAUGGUAGCAAAGCUACCUUUUUUCACUUCCUGUACAUUUACCCUGUCUGUCCAUAGUGAUUAAUGUAGCACCGCCUAAUUGCGGUGCUUUUUUU
The molecule B3 came in with an IC50 in the data set with Hfq wt [3] of 23 ± 5.2 nM. Also, the Kd in the data set with Hfq Y25D (distal face) [4] and with Hfq wt [5] was under 1 nM each time. In the data set with Hfq R16A (rim) [6], this molecule came in with a binding signal of 30 fold weaker than wt Hfq.

B4: AgvB-U0 (structured_RNA)
RNA: GGCGAUAACACAACAAUAUCAGUAUCUCAUGCUAUUGCCCGAACCCAUUCGGGCA
For B4, the Kd in the data set with Hfq Y25D (distal face) [7] turned out to be 21 ± 8 nM; with Hfq wt [8], 1.75 ± 0.6 nM; in the data set with Hfq R16A (rim) [9], 3.9 ± 0.76 nM.

B5: AgvB-U9 (structured_RNA)
RNA: GGCGAUAACACAACAAUAUCAGUAUCUCAUGCUAUUGCCCGAACCCAUUCGGGCAUUUUUUUUU
Turning to B5, the Kd with Hfq R16A (rim) [10] came to 0.19 ± 0.02 nM; in the data set with Hfq wt [11] it was 0.18 ± 0.02 nM; with Hfq Y25D (distal face) [12], 0.12 ± 0.016 nM.

B6: 3'ETSleuZ (structured_RNA)
RNA: GGCCCGGAUGGUGGAAUCGGUAGACACAAGGGAUUUAAAAUCCCUCGGCGUUCGCGCUGUGCGGGUUCAAGUCCCGCUCCGGGUACCAUGGGAAAGAUAAGAAUAAAAUCAAAGCAAUAAGCAGUGUCGUGAAACCACCUUCGGGUGGUUUUUUU
With B6, in the data set with Hfq R16A (rim) [13], the binding result is listed as “binds”. Moreover, the 50% inhibitory concentration (IC50) with Hfq wt [3] worked out at 39 ± 7.3 nM; with Hfq wt [15], 2.8 ± 0.35 nM. Moreover, the figures for the Kd with Hfq Y25D (distal face) [14] and with Hfq wt [16] were 0.34 ± 0.18 nM and 0.22 ± 0.008 nM, respectively.

B7: AgvB (structured_RNA)
RNA: GGCGAUAACACAACAAUAUCAGUAUCUCAUGCUAUUGCCCGAACCCAUUCGGGCAUUUUU
For B7, the Kd amounted to 27.2 ± 2.4 nM with Hfq K56A (proximal face), 0.38 ± 0.06 nM with Hfq wt [17], 0.13 ± 0.003 nM with Hfq Y25D (distal face) [18] and 2.7 ± 0.12 nM with Hfq R16A (rim) [19]. Besides, the IC50 with Hfq wt [3] is 9.9 ± 2.7 nM; with Hfq wt [15] it was 3.2 ± 1.4 nM.
